Results reported in patent publication US20040208867A1, “Protein having active sulfate transporter activity and method for detecting canceration of tissue” (NATIONAL INSTITUTE OF ADVANCED INDUSTRIAL SCIENCE AND …, priority 2002, published 2004).

Key:
[1] = substrate: Nc1ncnc2c1ncn2[C@@H]1O[C@H](COP(=O)(O)OS(=O)(=O)O)[C@@H](OP(=O)(O)O)[C@H]1O; assay: cells, lysate or membranes; settings: other: transport of PAPS (35S-labeled), P100 fraction, pH 7.5, PAPS concentration varied, FIG. 3, FIG. 4, 37.0 °C
[2] = transport activity of the P100 fraction for labeled nucleotide sugars instead of PAPS; format: biochemical, yeast strain W303a; settings: labeled nucleotide sugars instead of 35S-labeled PAPS (FIG. 2)
Method: Five minutes thereafter, 10 volumes of an ice-cooled reaction terminating solution (20 mM Tris-HCl buffer (pH 7.5) containing 0.25 M sucrose, 5 mM MgCl2 and 150 mM KCl) was added thereto, and the mixture was filtered through a nitrocellulose filter of 0.45 μm in pore size. This filter was washed with 10 ml of the iced-cooled reaction terminating solution, and the radioactivity of this filter was measured using a liquid scintillation counter (FIG. 1). Respective fractions prepared using a transformant of a yeast strain W303a transformed with YER352 GAPII alone were used as negative controls.

B1: human STP3 (GenBank accession No. XM_059770), protein having active sulfate (PAPS) transport activity, SEQ ID NO:2 (Homo sapiens) (protein)
chain: MDARWWAVVVLAAFPSLGAGGETPEAPPESWTQLWFFRFVVNAAGYASFMVPGYLLVQYFRRKNYLETGRGLCFPLVKACVFGNEPKASDEVPLAPRTEAAETTPMWQALKLLFCATGLQVSYLTWGVLQERVMTRSYGATATSPGERFTDSQFLVLMNRVLALIVAGLSCVLCKQPRHGAPMYRYSFASLSNVLSSWCQYEALKFVSFPTQVLAKASKVIPVMLMGKLVSRRSYEHWEYLTATLISIGVSMFLLSSGPEPRSSPATTLSGLILLAGYIAFDSFTSNWQDALFAYKMSSVQMMFGVNFFSCLFTVGSLLEQGALLEGTRFMGRHSEFAAHALLLSICSACGQLFIFYTIGQFGAAVFTIIMTLRQAFAILLSCLLYGHTVTVVGGLGVAVVFAALLLRVYARGRLKQRGKKAVPVESPVQKV
Km [1]: 0.7 µM | activity to specifically transport substances other than PAPS [2]: substantially has no activity
